Data from US20250019432A1 (MABLYTICS, published 2025).

T1: S12-C2 (human, UniProt Q96PQ1 1-481)
T1 construct: also called siglec12 C2set2 region
T1 sequence: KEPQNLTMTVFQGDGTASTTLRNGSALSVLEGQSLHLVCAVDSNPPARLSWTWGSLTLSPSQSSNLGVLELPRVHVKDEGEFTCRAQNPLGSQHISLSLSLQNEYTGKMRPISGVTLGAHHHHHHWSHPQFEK


Experiments:
S12-V1 = target: T2, S12-V1 (human); assay: ELISA
T2 construct: also called siglec12 Vset1 region
Experimental: (§1) For ELISA assays, purified subdomain proteins were passively immobilized on assay plates and incubated with media from hybridoma cultures described above before detection of bound anti-subdomain antibodies using anti-mouse (heavy/light) secondary antibody conjugated to horseradish peroxidase (HRP). Levels of bound secondary antibody were assessed by applying colorimetric substrate and measuring absorbance values at 450 nm. Absorbance values greater than 0.07 indicate specific binding.

S12-V2C1 = target: T3, S12-V2C1 (human, UniProt Q96PQ1 1-358); assay: ELISA
T3 construct: also called siglec12 Vset2-C2set1 region
Experimental: as §1

[1] = target: T4, S7ecto-Fc (human siglec7 ectodomain fused with human Fc domain) (human, UniProt Q9Y286 19-353); assay: ELISA
T4 construct: extracellular domain; bought from R&D Systems; not shown: human Fc domain
Experimental: (§2) Fusion proteins of human siglec7 or siglec9 ectodomains fused with human Fc domains (R&D Systems, Minneapolis, MN) were immobilized on assay plates and incubated with media from hybridoma cultures described above before detection of bound antibodies using anti-mouse (heavy/light) secondary antibody conjugated to HRP. Levels of bound secondary antibody were assessed by applying colorimetric substrate and measuring absorbance values at 450 nm.

[2] = target: T5, S9ecto-Fc (human siglec9 ectodomain fused with human Fc domain) (human, UniProt Q9Y336 18-348); assay: ELISA
T5 construct: extracellular domain; bought from R&D Systems; not shown: human Fc domain
Experimental: as §2

[3] = target: T6, S12-Fc (human siglec12 extracellular domain fused with mouse Fc2a fragment) (human; mouse); assay: ELISA
T6 construct: also called S12ecto-mouse Fc2a
Experimental: After 6 weeks of immunization, serum samples from immunized mice were screened for the presence of siglec12-specific immunoglobulins. Screening was carried out by enzyme-linked immunosorbent assay (ELISA) and by fluorescence-associated cell sorting (FACS). ELISA assays utilized assay plates coated with S12-Fc target antigen for immobilization of siglec12-specific immunoglobulins from mouse serum samples, which were detected using anti-mouse light chain (kappa and lambda) secondary antibody conjugated to horseradish peroxidase (HRP). The level of bound secondary antibody was assessed by incubation with colorimetric peroxidase substrate followed by measurement of light absorbance intensity values obtained at 450 nm. For FACS analysis, serum samples were combined with U937 cells (Fc receptor blocked with 10% human serum), an AML cell line that overexpresses human siglec12. Immunoglobulin binding to siglec12 associated with these cells is a strong indicator of potential immunotherapeutic use to treat AML. Anti-mouse heavy chain fluorescent detection reagents were used to label cell surface-bound serum immunoglobulins before FACS analysis. Lymph node and spleen cells from the three best responders were harvested and fused with P3X63Ag8.653 mouse myeloma cells. After 10-14 days of selection, the resulting hybridoma library was single-cell cloned into 96-well culture plates using FACS. After 10-14 days of single cell expansion, all monoclonal hybridoma culture supernatants were screened for S12-Fc binding immunoglobulins by ELISA. Supernatant positive for S12-Fc-binding immunoglobulins was further screened by FACS for immunoglobulin binding to U937 cells. The Table includes an antibody identification number (ID #) assigned to siglec12-binding antibodies associated with each hybridoma culture. For ELISA results, background adjusted mean absorbance values obtained at 450 nm are shown. For FACS analysis, Flow Fluor MFI is the mean fluorescence intensity from flow cytometry assay (background MFI=100) and flow % gated is the percentage of cells having greater than background fluorescence.

[4] = target: T7, siglec8 with C-terminal FLAG tag on Expi 293 cells (UniProt Q9NYZ4 17-499, limits assumed); assay: flow cytometry, transfected Expi 293, 500 nM
T7 construct: whole, on cells; not shown: C-terminal FLAG tag
Experimental: (§3) To verify anti-siglec12 antibody specificity for native siglec12 (over other siglec family members), cross-reactivity analysis was carried out using flow cytometry. Expi 293 cells were grown in 6 well plates and transfected with […] of pcDNA3.1 expression vectors (Thermo Fisher Scientific, Waltham, MA) with inserts encoding siglec6, siglec7, siglec8, siglec9, or siglec12 proteins with C-terminal FLAG tags. The following day, Expi293 enhancers were added. On day 2 (post-transfection) cells were washed in PBSB and aliquoted into plastic V-bottomed plates at a density of 5×10⁵ cells/well. An aliquot was also used for Western blot analysis to confirm siglec expression (using anti-FLAG antibody as described below). Plated cells were incubated with anti-siglec12 antibodies at a concentration of 500 nM or siglec-specific control antibody (all from R&D Systems, Minneapolis, MN; Siglec6-specific clone 767329; Siglec8-specific clone 837535; Siglec9-specific clone 191240) at a concentration of 12.5 μg/mL for 2 hours on ice. Cells were then washed with ice cold PBSB and incubated with PE-goat anti mouse H/L chain secondary antibody (1:400 in PBSB) for 30 minutes on ice. Cells were again washed with ice cold PBSB and analyzed for surface staining based on fluorescence intensity determined by GUAVA® […]™ Plus flow cytometer.

[5] = target: T8, siglec9 with C-terminal FLAG tag on Expi 293 cells (UniProt Q9Y336 18-463, limits assumed); assay: flow cytometry, transfected Expi 293, 500 nM
T8 construct: whole, on cells; not shown: C-terminal FLAG tag
Experimental: as §3

[6] = target: T9, siglec7 with C-terminal FLAG tag on Expi 293 cells (UniProt Q9Y286 19-467, limits assumed); assay: flow cytometry, transfected Expi 293, 500 nM
T9 construct: whole, on cells; not shown: C-terminal FLAG tag
Experimental: as §3

S12-C2 = target: T1, S12-C2; assay: ELISA
Experimental: as §1

[7] = target: T4, S7ecto-Fc (human siglec7 ectodomain …); assay: ELISA; remark: listed apart in the source

T6 sequence (chain, as listed by the source limits assumed): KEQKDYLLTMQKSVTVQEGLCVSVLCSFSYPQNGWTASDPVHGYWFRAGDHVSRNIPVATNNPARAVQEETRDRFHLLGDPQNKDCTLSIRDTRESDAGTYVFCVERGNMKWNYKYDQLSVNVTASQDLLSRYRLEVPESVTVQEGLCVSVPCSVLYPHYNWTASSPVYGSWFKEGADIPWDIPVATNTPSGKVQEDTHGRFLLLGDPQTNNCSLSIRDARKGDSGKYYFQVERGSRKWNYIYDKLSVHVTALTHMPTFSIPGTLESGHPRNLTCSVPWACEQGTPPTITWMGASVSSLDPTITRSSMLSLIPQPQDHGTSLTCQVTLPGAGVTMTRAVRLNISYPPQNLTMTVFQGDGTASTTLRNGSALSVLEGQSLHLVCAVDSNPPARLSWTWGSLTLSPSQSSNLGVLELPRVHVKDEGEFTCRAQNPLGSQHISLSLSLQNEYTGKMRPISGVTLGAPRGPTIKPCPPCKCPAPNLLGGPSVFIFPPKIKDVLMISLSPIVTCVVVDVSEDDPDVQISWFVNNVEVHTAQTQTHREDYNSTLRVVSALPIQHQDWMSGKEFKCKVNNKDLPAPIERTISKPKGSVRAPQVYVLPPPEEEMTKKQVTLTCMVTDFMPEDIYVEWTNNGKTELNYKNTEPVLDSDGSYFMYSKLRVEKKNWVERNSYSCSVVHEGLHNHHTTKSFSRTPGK
T3 sequence (Q96PQ1 other isoform, or with tags, fused parts or gaps limits assumed): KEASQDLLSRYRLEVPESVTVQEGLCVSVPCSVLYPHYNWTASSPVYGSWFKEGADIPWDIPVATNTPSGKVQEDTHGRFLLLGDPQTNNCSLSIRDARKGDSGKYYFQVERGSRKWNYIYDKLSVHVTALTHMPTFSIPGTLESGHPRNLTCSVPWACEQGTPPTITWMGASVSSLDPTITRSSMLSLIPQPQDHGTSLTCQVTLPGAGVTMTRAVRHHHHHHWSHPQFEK
T4 sequence (Q9Y286 19-353): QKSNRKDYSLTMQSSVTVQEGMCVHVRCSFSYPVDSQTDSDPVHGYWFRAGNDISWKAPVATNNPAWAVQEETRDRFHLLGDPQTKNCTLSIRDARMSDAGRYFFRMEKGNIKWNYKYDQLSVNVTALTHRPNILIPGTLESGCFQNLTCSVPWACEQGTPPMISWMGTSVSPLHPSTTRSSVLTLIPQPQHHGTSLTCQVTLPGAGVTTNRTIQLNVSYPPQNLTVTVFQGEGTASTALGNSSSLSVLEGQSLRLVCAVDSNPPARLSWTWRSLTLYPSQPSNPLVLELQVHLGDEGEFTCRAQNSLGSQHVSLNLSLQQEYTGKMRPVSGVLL
T7 sequence (Q9NYZ4 17-499 limits assumed): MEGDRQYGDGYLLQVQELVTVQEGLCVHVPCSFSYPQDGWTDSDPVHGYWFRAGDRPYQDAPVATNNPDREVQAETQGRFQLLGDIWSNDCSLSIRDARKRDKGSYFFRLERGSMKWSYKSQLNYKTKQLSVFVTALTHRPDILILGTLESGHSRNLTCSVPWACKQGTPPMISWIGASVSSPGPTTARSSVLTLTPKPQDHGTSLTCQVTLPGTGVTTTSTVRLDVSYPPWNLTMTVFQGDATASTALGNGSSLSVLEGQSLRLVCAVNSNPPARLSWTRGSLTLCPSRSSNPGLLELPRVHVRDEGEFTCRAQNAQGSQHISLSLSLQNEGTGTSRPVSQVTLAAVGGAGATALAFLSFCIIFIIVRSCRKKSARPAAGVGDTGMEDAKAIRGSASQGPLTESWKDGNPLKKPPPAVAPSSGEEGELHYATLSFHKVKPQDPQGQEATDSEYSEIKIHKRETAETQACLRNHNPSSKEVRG
T2 sequence (chain, as listed by the source limits assumed): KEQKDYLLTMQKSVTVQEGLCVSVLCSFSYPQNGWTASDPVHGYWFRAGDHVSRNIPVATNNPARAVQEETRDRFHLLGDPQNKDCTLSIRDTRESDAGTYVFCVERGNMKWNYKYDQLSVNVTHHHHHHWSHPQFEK
T9 sequence (Q9Y286 19-467 limits assumed): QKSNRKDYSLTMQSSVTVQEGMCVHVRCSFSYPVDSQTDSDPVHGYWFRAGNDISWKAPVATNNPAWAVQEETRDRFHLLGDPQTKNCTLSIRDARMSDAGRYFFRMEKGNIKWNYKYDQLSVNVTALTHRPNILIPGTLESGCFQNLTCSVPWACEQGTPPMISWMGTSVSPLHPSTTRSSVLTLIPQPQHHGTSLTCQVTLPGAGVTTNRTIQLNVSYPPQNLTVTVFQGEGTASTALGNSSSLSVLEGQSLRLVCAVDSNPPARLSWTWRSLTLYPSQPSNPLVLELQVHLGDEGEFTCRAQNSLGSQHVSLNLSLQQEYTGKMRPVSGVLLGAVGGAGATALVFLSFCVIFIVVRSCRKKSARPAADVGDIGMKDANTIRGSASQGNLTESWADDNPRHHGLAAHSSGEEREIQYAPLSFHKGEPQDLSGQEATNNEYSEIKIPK
T5 sequence (Q9Y336 18-348): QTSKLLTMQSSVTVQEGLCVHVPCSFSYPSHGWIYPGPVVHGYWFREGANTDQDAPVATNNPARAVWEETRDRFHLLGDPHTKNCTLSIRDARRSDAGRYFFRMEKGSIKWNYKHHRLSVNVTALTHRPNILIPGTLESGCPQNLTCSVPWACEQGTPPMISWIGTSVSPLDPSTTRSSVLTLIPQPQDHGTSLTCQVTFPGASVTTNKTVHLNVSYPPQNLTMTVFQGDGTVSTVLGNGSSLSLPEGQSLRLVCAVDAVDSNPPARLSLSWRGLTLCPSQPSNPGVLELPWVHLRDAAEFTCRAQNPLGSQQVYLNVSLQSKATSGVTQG
T8 sequence (Q9Y336 18-463 limits assumed): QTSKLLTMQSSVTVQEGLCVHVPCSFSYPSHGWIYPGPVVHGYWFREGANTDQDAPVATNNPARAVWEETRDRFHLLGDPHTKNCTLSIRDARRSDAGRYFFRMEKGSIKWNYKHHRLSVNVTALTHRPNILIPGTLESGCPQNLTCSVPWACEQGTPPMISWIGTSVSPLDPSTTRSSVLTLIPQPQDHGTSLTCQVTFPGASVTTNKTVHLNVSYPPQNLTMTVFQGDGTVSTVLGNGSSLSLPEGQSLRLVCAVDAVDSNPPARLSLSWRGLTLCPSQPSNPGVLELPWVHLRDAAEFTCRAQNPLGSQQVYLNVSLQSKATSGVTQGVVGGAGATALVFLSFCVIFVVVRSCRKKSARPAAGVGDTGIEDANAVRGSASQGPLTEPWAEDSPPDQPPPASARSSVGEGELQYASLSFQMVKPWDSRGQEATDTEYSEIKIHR

binding result (S12-V1) | binding result (S12-V2C1) | A450 [1] | A450 [2] | A450 [3] | MFI [4] | MFI [5] | MFI [6] | binding result (S12-C2) | A450 (S12-V1) | A450 (S12-C2) | A450 (S12-V2C1) | Binder | binding result [7]
no binding (tested: A450 0.07) | no binding (tested: A450 0.07) | 0.06 | 0.05 |  |  |  |  |  |  |  |  | S0103 (antibody, V domains shown, human variable domains with mouse constant regions (Trianni mouse hybridoma)) VH: QVQLVQSGAEVKKPGASVKVSCKASGYTFTSYDINWVRQATGQGLEWMGWMNPNSGNTGYAQNFQGRVTMTRDTSVNTAYMELSSLRSEDTAVYYCARGGPNLVRGVIIRDAFDFWGQGTMVTVSS VL: EIVMTQSPATLSVSPGERATLSCRASQSVSNSFAWYQQKPGQAPRLLIYGAFTRATGIPARFSGSGSGIEFTLTISSLQSEDFAVYYCQQYKTWPLTFGGGTKVEIKR | 
no binding (tested: A450 0.07) |  | 0.07 | 0.08 | 2.64 | 6.3 | 1.3 | 2.8 | no binding (tested: A450 0.07) |  |  | 0.62 | S0057 (antibody, V domains shown, human variable domains with mouse constant regions (Trianni mouse hybridoma); also called S0057 whole antibody) VH: QGQLVQSGAEVKKPGASVKVSCKASGYTFNNYGISWVRQAPGQGLEWMGWISAYNGFTRSTQKFQGRVTLTTDTSTSTAHMELRSLRSDDTAAYYCARDGGDGFDPWGQGTLVTVSS VL: EIVLTQSPATLSLSPGERATLSCRASQSVSSFLAWYQQKPGQAPRLLIFDASNRATGIPARFSGSGSGTDFTLTISSLEPEDFAVYYCQQRSNWITFGQGTRLEIKRA | no binding (tested: A450>0.09 (so in the source))

Further lines, the binder ahead of its results:

Binder | binding result (S12-V1) | binding result (S12-V2C1) | A450 [1] | A450 [2] | A450 [3] | MFI [4] | MFI [5] | MFI [6] | binding result (S12-C2) | A450 (S12-V1) | A450 (S12-C2) | A450 (S12-V2C1) | binding result [7]
S0040 (antibody, V domains shown, human variable domains with mouse constant regions (Trianni mouse hybridoma)) VH: QVQLVQSGAEVKKPGASVKVSCKASGYTFTSYDINWVRQATGQGLEWMGWMNPNSGNTGYAQNFQGRVTMTRNTSINTAYMELSSLRSEDTAVYYCTRGGPTLVRGVIIRDAFDFWGQGTMVTVSS VL: EIVMTQSPATLSVSPGERATLSCRASQSVSNSFAWYQQKPGQAPRLLIYGAFTRATGIPARFSGSGSGTEFTLTISSLQSEDFAVYYCQQYKTWPLTFGGGTKVEIKR | no binding (tested: A450 0.07) | no binding (tested: A450 0.07) | 0.05 | 0.05 |  |  |  |  |  |  |  |  | 
S0042 (antibody, V domains shown, human variable domains with mouse constant regions (Trianni mouse hybridoma)) VH: QVQLVQSGTEVKKPGASVKVSCKVSGYTLSDLSIHWVRQAPGKGLEWMGGFEPEDGEIIYAQKFQGRVIMTEDTSTDTAYMKLSSLRSEDTAVYYCATDKRYFDWLLSGFDYWGQGTLVTVSS VL: DIQLTQSPSFLSASVGDRVTITCRASQGISSYLAWYQQKPGKAPKLLIFAASTLQSGVPSRFSGSGSGTEFTLTISSLQPEDFATYYCQRLHSYPRTFGQGTKVEIKRA |  | no binding (tested: A450 0.07) | 0.06 | 0.05 | 1.99 | 5.3 | 2.3 | 3.9 | no binding (tested: A450 0.07) | 0.1 |  |  | 
S0102 (antibody, V domains shown, human variable domains with mouse constant regions (Trianni mouse hybridoma); also called S0102 anti-Siglec12 antibody) VH: QVQLVESGGGVVQPGRSLRLSCAASGFTFSSYGMHWVRQAPGKGLEWVAVISYDGSNKYYTDSVKGRFTISRDNSKNTLYLQMNSLRAEDTAVYYCARGGYYGSGSLDYWGQGTLVTVSS VL: not shown | no binding (tested: A450 0.07) |  | 0.07 | 0.06 | 3.34 | 7 |  |  |  |  | 0.08 | 1.65 | 
S0023 (antibody, V domains shown, human variable domains with mouse constant regions (Trianni mouse hybridoma)) VH: EVQLLESGGGLVQPGGSLRLSCAASGFTFSTFAMSWVRQAPGKGLEWVSTISGGGDSTYYADSVKGRFTISRDNSKNMMSLQMNSLRAVDTAVYYCVKGGGDEYFYYGMDVWGQGTTVTVSS VL: DIQMTQSPSSLSASVGDRVTITCRASQGIRNDLGWYQQKPGKAPKRLIYSASSLQSGVPSRFSGSGSGTEFTLTISSLQPEDFATYYCLQHNSYPYTFGQGTPLDIKR | no binding (tested: A450 0.07) |  | 0.05 | 0.05 |  | 2.8 | 3 | 2.1 | no binding (tested: A450 0.07) |  |  |  | 
